Experimental findings from PMC10726252, “Structure and biochemical characterization of L-2-hydroxyglutarate dehydrogenase and its role in the pathogenesis of L-2-hydroxyglutaric aciduria” (The Journal of Biological Chemistry, 2023) are described below.

Bounds are passed on as bounds.

The target in data set [1] is dmL2HGDH with Cys77 substituted by alanine (Drosophila melanogaster) (UniProt Q9VJ28). As to the kind of experiment: not stated; tetrameric state of the Cys77 to alanine mutant in solution (Fig. S11E).
Data set [2] deals with T1, dmL2HGDH (Drosophila melanogaster, UniProt Q9VJ28).
T1 construct: gene L2HGDH; residues 41-455, mitochondrial-targeting peptide (1-40) removed; N-terminal His6-SUMO tag cleaved by ULP1; E. coli; tetramer about 178 kDa
Kind of data set: crystal structure, […] Å; absorbance at […] nm. The class given is binding. The conditions noted are these: FAD co-purified from E. coli expression.

Data set [3] deals with T1, dmL2HGDH. Kind of data set: inhibition of L-2-HG oxidation, DCIP reduction at […] nm. Conditions: read-out: % inhibition at 10 mM. The class given is biochemical.
Substrate in the data set “purified protein”: O=C(O)CC[C@H](O)C(=O)O
Kind of data set: purified protein. The class given is biochemical, Drosophila melanogaster. The conditions noted are these: 200 μM phenazine methosulfate, 100 μM DCIP, 50 mM Hepes pH 7.5, about 25 °C, corrected for FAD occupancy.

Data set [4] concerns the molecule itself. Kind of data set: SEC-MALS; protein solution 2 mg/ml on Superdex 200 10/300; 20 mM Hepes pH 7.4, 200 mM NaCl; 0.4 ml/min.

In data set [1], “dmL2HGDH with Cys77 substituted by alanine (from UniProt Q9VJ28 41-455) (enzyme)” came in with a stoichiometry N of 4.
For `Cc1cc2nc3c(=O)[nH]c(=O)nc-3n(C[C@H](O)[C@H](O)[C@H](O)COP(=O)(O)OP(=O)(O)OC[C@H]3O[C@@H](n4cnc5c(N)ncnc54)[C@H](O)[C@@H]3O)c2cc1C` [FAD], on dmL2HGDH [2], the “crystal structure, 2.85 Å; absorbance at 450 nm” value is “In each monomer, there are an FAD bound at the active site”.
As for `O=C(O)C[C@H](O)C(=O)O` [L-MAL], at dmL2HGDH [3], the inhibition at 10000 µM was less than 30%.

B1: Drosophila melanogaster L-2-hydroxyglutarate dehydrogenase (dmL2HGDH), residues 41-455 (enzyme, UniProt Q9VJ28 41-455, looked up)
chain: GDYDLVVVGGGIVGAASAREIVLRHPSLKVAVLEKECKLAKHQSGHNSGVIHAGIYYKPGTLKARLCVEGMHLAYAYLDEKKIPYKKTGKLIVATDEKEVKLLKDLEKRGIANNVPDLRMIEGSEIQEIEPYCQGVMALHSPHTGIVDWGLVTEHYGQDFKQCGGDIYLDFNVSKFTETKEGTDYPVTIHGAKPGQTVRTKNVLTCGGLQSDLLAEKTGCPRDPRIVPFRGEYLLLTKEKQHMVKGNIYPVPDPRFPFLGVHFTPRMDGSIWLGPNAVLALKREGYTWGDINLFELFDALRYPGFVKMASKYIGFGLSEMSKSWFINLQIKALQKYIPDITEYDIQRGPAGVRAQAMDLDGNLVDDFVFDRGQGSGALAKRVLHCRNAPSPGATSSLAIAKMIADKIENEFSIGK
notes: L-2-hydroxyglutarate dehydrogenase, Drosophila melanogaster, residues 41-455; the N-terminal 1 to 40 residues (mitochondrial-targeting peptide) removed; Gene synthesized by Sangon Biotech; also called WT dmL2HGDH; truncated dmL2HGDH; source: E. coli BL21 Codon-Plus (DE3)-RIPL, purified (Ni-NTA, tag removal by ULP1, Superdex 200); not shown: His6, N-terminal, cleaved; SUMO, N-terminal, cleaved
Take B1: in the data set “purified protein”, the Km came to 130 ± 8 µM, the Vmax worked out at 10.2 µmol/min/mg, the kcat was 7.76 ± 0.11 s⁻¹ and the kcat/Km is 59700 M⁻¹ s⁻¹. In addition, the “stoichiometry N” value in data set [4] amounted to 4.

B2: dmL2HGDH (Drosophila melanogaster; R393A) (protein)
chain: GDYDLVVVGGGIVGAASAREIVLRHPSLKVAVLEKECKLAKHQSGHNSGVIHAGIYYKPGTLKARLCVEGMHLAYAYLDEKKIPYKKTGKLIVATDEKEVKLLKDLEKRGIANNVPDLRMIEGSEIQEIEPYCQGVMALHSPHTGIVDWGLVTEHYGQDFKQCGGDIYLDFNVSKFTETKEGTDYPVTIHGAKPGQTVRTKNVLTCGGLQSDLLAEKTGCPRDPRIVPFRGEYLLLTKEKQHMVKGNIYPVPDPRFPFLGVHFTPRMDGSIWLGPNAVLALKREGYTWGDINLFELFDALRYPGFVKMASKYIGFGLSEMSKSWFINLQIKALQKYIPDITEYDIQRGPAGVAAQAMDLDGNLVDDFVFDRGQGSGALAKRVLHCRNAPSPGATSSLAIAKMIADKIENEFSIGK
notes: residues 41-455, mitochondrial-targeting peptide (1-40) removed; N-terminal His6-SUMO tag cleaved by ULP1; E. coli; tetramer about 178 kDa
In the case of B2, in the data set “purified protein”, the Km was found to be 240 ± 30 µM, the Vmax stood at 5.68 µmol/min/mg, the kcat is 4.34 ± 0.15 s⁻¹ and the kcat/Km turned out to be 18100 M⁻¹ s⁻¹.

B3: dmL2HGDH (Drosophila melanogaster; S88A) (protein)
chain: GDYDLVVVGGGIVGAASAREIVLRHPSLKVAVLEKECKLAKHQSGHNAGVIHAGIYYKPGTLKARLCVEGMHLAYAYLDEKKIPYKKTGKLIVATDEKEVKLLKDLEKRGIANNVPDLRMIEGSEIQEIEPYCQGVMALHSPHTGIVDWGLVTEHYGQDFKQCGGDIYLDFNVSKFTETKEGTDYPVTIHGAKPGQTVRTKNVLTCGGLQSDLLAEKTGCPRDPRIVPFRGEYLLLTKEKQHMVKGNIYPVPDPRFPFLGVHFTPRMDGSIWLGPNAVLALKREGYTWGDINLFELFDALRYPGFVKMASKYIGFGLSEMSKSWFINLQIKALQKYIPDITEYDIQRGPAGVRAQAMDLDGNLVDDFVFDRGQGSGALAKRVLHCRNAPSPGATSSLAIAKMIADKIENEFSIGK
notes: as for B2
As to B3, in the data set “purified protein”, the Km was determined as 560 ± 150 µM, the Vmax was 1.56 µmol/min/mg, the kcat is 1.19 ± 0.13 s⁻¹ and the catalytic efficiency (kcat/Km) came out at 2130 M⁻¹ s⁻¹.
